Assays:
[1] = target: the molecule itself; test: AUC; proteins diluted to 0.9 A280 in Q-A buffer (20 mM Tris pH 8, 50 mM NaCl, 1 mM TCEP); 40,000 RPM; analysed with Ultrascan
[2] = target: T1, human RNA lariat debranching enzyme Dbr1, full-length (1-544) (human, UniProt Q9UK59 1-544); test: fluorescence polarisation; fluorescein-labeled TTDN1 fixed at 2.5 nM; unlabeled Dbr1 titrated (3-fold dilution from 2.8 uM to 1 nM) or Drn1 at 225 nM; SEC buffer; black 96-well half-area plates; settings: both partners purified
T1 construct: human RNA lariat debranching enzyme Dbr1, full-length, residues 1-544; codon-optimized expression plasmid synthesized by DNA2.0; also called hDbr1; human Dbr1; source: E. coli BL21, purified (Ni column, Source 15 Q)
T1 sequence (looked up): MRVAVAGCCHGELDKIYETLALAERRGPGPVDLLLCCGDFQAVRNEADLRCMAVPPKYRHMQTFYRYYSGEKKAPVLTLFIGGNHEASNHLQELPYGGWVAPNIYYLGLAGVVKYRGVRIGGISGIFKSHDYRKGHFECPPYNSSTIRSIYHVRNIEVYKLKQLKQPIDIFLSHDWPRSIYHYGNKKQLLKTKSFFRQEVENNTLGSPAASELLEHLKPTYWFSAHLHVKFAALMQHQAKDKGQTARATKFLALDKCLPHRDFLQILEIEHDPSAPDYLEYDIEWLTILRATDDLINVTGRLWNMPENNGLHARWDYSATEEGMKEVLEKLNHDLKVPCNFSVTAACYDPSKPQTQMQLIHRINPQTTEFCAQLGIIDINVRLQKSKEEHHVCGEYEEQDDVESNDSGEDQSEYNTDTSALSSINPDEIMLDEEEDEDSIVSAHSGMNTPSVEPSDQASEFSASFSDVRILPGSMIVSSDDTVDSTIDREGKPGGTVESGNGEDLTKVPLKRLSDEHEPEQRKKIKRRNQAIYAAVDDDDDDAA

[3] = target: T1, human RNA lariat debranching enzyme …; test: cell-based or functional assay
[4] = target: T1, human RNA lariat debranching enzyme …; test: SEC; Superdex 200-Increase 10/300 in SEC buffer (50 mM Tris pH 8, 100 mM NaCl, 1 mM TCEP); about 100 ug Dbr1 injected, Drn1 added at an equimolar ratio; peak fraction on a Coomassie-stained denaturing gel; settings: both partners purified

B1: human Dbr1 truncated after residue 502 (Dbr1-502) (domain or fragment, UniProt Q9UK59 1-502, looked up)
chain: MRVAVAGCCHGELDKIYETLALAERRGPGPVDLLLCCGDFQAVRNEADLRCMAVPPKYRHMQTFYRYYSGEKKAPVLTLFIGGNHEASNHLQELPYGGWVAPNIYYLGLAGVVKYRGVRIGGISGIFKSHDYRKGHFECPPYNSSTIRSIYHVRNIEVYKLKQLKQPIDIFLSHDWPRSIYHYGNKKQLLKTKSFFRQEVENNTLGSPAASELLEHLKPTYWFSAHLHVKFAALMQHQAKDKGQTARATKFLALDKCLPHRDFLQILEIEHDPSAPDYLEYDIEWLTILRATDDLINVTGRLWNMPENNGLHARWDYSATEEGMKEVLEKLNHDLKVPCNFSVTAACYDPSKPQTQMQLIHRINPQTTEFCAQLGIIDINVRLQKSKEEHHVCGEYEEQDDVESNDSGEDQSEYNTDTSALSSINPDEIMLDEEEDEDSIVSAHSGMNTPSVEPSDQASEFSASFSDVRILPGSMIVSSDDTVDSTIDREGKPGGTVESGNG
notes: source: E. coli, purified
- binding result [1]: binds

B2: human Dbr1 truncated after residue 399 (Dbr1-399) (domain or fragment, UniProt Q9UK59 1-399, looked up)
chain: MRVAVAGCCHGELDKIYETLALAERRGPGPVDLLLCCGDFQAVRNEADLRCMAVPPKYRHMQTFYRYYSGEKKAPVLTLFIGGNHEASNHLQELPYGGWVAPNIYYLGLAGVVKYRGVRIGGISGIFKSHDYRKGHFECPPYNSSTIRSIYHVRNIEVYKLKQLKQPIDIFLSHDWPRSIYHYGNKKQLLKTKSFFRQEVENNTLGSPAASELLEHLKPTYWFSAHLHVKFAALMQHQAKDKGQTARATKFLALDKCLPHRDFLQILEIEHDPSAPDYLEYDIEWLTILRATDDLINVTGRLWNMPENNGLHARWDYSATEEGMKEVLEKLNHDLKVPCNFSVTAACYDPSKPQTQMQLIHRINPQTTEFCAQLGIIDINVRLQKSKEEHHVCGEYEEQ
notes: source: E. coli, purified
- binding result [1]: binds

B3: trichothiodystrophy nonphotosensitive 1 (TTDN1), fluorescein-labeled (natural protein, UniProt Q8TAP9 1-179, looked up)
chain: MQRQNFRPPTPPYPGPGGGGWGSGSSFRGTPGGGGPRPPSPRDGYGSPHHTPPYGPRSRPYGSSHSPRHGGSFPGGRFGSPSPGGYPGSYSRSPAGSQQQFGYSPGQQQTHPQGSPRTSTPFGSGRVREKRMSNELENYFKPSMLEDPWAGLEPVSVVDISQQYSNTQTFTGKKGRYFC
modifications: 5-iodoacetamido-fluorescein label on the cysteine residue at the C terminus
notes: trichothiodystrophy nonphotosensitive 1 (TTDN1); codon-optimized expression plasmid ordered from GenScript; The debranching (functional) assays used unlabeled, GuHCl-solubilized TTDN1 of the same construct; also called labeled TTDN1
- Kd [2]: ~3 nM
- catalytic efficiency of Dbr1 debranching of a fluorescent branched RNA substrate, TTDN1:Dbr1 mixture at 10:1 molar ratio (unlabeled, GuHCl-solubilized TTDN1), relative to Dbr1 alone [3]: 19 fold

B4: Drn1 (human Drn1 homolog, Cwf19-L1) (natural protein, UniProt Q69YN2 1-538, looked up)
chain: MAQKPLRLLACGDVEGKFDILFNRVQAIQKKSGNFDLLLCVGNFFGSTQDAEWEEYKTGIKKAPIQTYVLGANNQETVKYFQDADGCELAENITYLGRKGIFTGSSGLQIVYLSGTESLNEPVPGYSFSPKDVSSLRMMLCTTSQFKGVDILLTSPWPKCVGNFGNSSGEVDTKKCGSALVSSLATGLKPRYHFAALEKTYYERLPYRNHIILQENAQHATRFIALANVGNPEKKKYLYAFSIVPMKLMDAAELVKQPPDVTENPYRKSGQEASIGKQILAPVEESACQFFFDLNEKQGRKRSSTGRDSKSSPHPKQPRKPPQPPGPCWFCLASPEVEKHLVVNIGTHCYLALAKGGLSDDHVLILPIGHYQSVVELSAEVVEEVEKYKATLRRFFKSRGKWCVVFERNYKSHHLQLQVIPVPISCSTTDDIKDAFITQAQEQQIELLEIPEHSDIKQIAQPGAAYFYVELDTGEKLFHRIKKNFPLQFGREVLASEAILNVPDKSDWRQCQISKEDEETLARRFRKDFEPYDFTLDD
notes: human Drn1 homolog (Cwf19-L1); cDNA purchased from Genecopoeia, subcloned into a modified pET vector; source: E. coli BL21, purified (Ni column, Superdex-200)
- stoichiometry N [4]: 1
